Article PMC4565128

Molecular target: Aldehyde dehydrogenase 7A1 (full-length recombinant human cytosolic ALDH7A1 isoform 2) (human)
Experiment: SAXS

- stoichiometry N: 4
Substance: Aldehyde dehydrogenase 7A1 (full-length recombinant human cytosolic ALDH7A1 isoform 2) (enzyme)
